Values joined by “and” are separate entries in the source; they are usually repeats but may differ in a detail not shown here. Equal entries are not always repeated.
Tests used:
[1] = molecular target: FLAG-BIRC6 (full-length baculoviral IAP repeat-containing protein 6) (human) (UniProt Q9NR09); experiment: cryo-EM structure; conditions: remark: other sources report otherwise
[2] = molecular target: 3xFLAG-BIRC6 (full-length, wild type) (human) (UniProt Q9NR09); experiment: FRET or BRET
[3] = molecular target: 3xFLAG-BIRC6 (full-length, wild type) (human, UniProt Q9NR09 1-4857); experiment: FRET or BRET
[4] = molecular target: 3xFLAG-BIRC6 ΔHelix (aa1616-1666 removed) (human, UniProt Q9NR09 1-4857, ΔHelix, aa1616-1666 removed); experiment: FRET or BRET
[5] = molecular target: 3xFLAG-BIRC6 BIRmut (C328S/C331S) (human, UniProt Q9NR09 1-4857, C328S | C331S); experiment: FRET or BRET
[6] = molecular target: the molecule itself; experiment: cryo-EM structure
[7] = molecular target: FLAG-BIRC6 (full-length baculoviral IAP repeat-containing protein 6) (human, UniProt Q9NR09 1-4857); experiment: cryo-EM structure

FLAG-BIRC6 (full-length baculoviral IAP repeat-containing protein 6), Q9NR09 1-4857
stoichiometry N [1]: 2

BODIPY-labeled caspase-7 (from UniProt P55210 1-303) (enzyme)
Kd [2]: 4 nM

B1: BODIPY-labeled Smac-Cys (natural protein)
chain: AVPIAQKSEPHSLSSEALMRRAVSLVTDSTSTFLSQTTYALIEAITEYTKAVYTLTSLYRQYTSLLGKMNSEEEDEVWQVIIGARAEMTSKHQEYLKLETTWMTAVGLSEMAAEAAYQTGADQASITARNHIQLVKLQVEEVHQLSRKAETKLAEAQIEELRQKTQEEGEERAESEQEAYLREDC
modifications: BODIPY FL Maleimide on the introduced cysteine (degree of labeling 0.48)
Kd [3]: < 2 nM and 2 nM | binding result [3]: binds | Kd [4]: 30 ± 5 nM | Kd [5]: 26 ± 2 nM

B2: Smac-His9 (mature Smac without the N-terminal mitochondrial targeting sequence) (natural protein)
chain: AVPIAQKSEPHSLSSEALMRRAVSLVTDSTSTFLSQTTYALIEAITEYTKAVYTLTSLYRQYTSLLGKMNSEEEDEVWQVIIGARAEMTSKHQEYLKLETTWMTAVGLSEMAAEAAYQTGADQASITARNHIQLVKLQVEEVHQLSRKAETKLAEAQIEELRQKTQEEGEERAESEQEAYLRED
stoichiometry N [6]: 2 | binding result [7]: binds
